# Biological target: tissue plasminogen activator (UniProt P00750 36-562, limits assumed)
# Experiment: cell-based or functional assay
# Sequence of tissue plasminogen activator (P00750 36-562 limits assumed): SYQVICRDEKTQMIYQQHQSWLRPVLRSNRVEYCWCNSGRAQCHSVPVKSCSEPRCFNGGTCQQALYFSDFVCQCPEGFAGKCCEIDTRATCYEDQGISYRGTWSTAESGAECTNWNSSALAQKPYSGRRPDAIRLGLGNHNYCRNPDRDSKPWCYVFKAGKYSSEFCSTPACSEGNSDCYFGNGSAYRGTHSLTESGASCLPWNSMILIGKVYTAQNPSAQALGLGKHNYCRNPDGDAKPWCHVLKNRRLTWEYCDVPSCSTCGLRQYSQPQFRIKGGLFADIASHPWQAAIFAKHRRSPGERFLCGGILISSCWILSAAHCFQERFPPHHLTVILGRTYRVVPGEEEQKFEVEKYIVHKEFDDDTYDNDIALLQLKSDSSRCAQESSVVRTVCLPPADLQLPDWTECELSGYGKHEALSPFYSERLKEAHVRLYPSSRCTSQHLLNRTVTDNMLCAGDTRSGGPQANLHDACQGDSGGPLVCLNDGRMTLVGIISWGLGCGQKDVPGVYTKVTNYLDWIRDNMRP
binder,measurement,value
pancreas-derived plasminogen activator inhibitor (PAPAI) protein (other) SRCSAQKNTEFAVDLYQEVSLSHKDNIIFSPLGITLVLEMVQLGAKGKAQQQIRQTLKQQETSAGEEFLVLKSFCSAISEKKQEFTFNLANALYLQEGFTVKEQYLHGNKEFFQSAIKLVDFQDAKACAEMISTWVERKTDGKIKDMFSGEEFGPLTRLVLVNAIYFKGDWKQKFRKEDTQLINFTKKNGSTVKIPMMKALLRTKYGYFSESSLNYQVLELSYKGDEFSLIIILPAEGMDIEEVEKLITAQQILKWLSEMQEEEVEISLPRFKVEQKVDFKDVLYSLNITEIFSGGCDLSGITDSSEVYVSQVTQKVFFEINEDGSEAATSTGIHIPVIMSLAQSQFIANHPFLFIMKHNPTESILFMGRVTNPDTQEIKGRDLDSL,anti-tPA activity (plasminogen activator inhibitory activity) of concentrated conditioned media,3 fold over PAPAI negative clones

# From US6893870 (Human Genome Sciences, dated 2005)
